The target of data set [1] is Zif268 finger 2 variant LRHN finger 2 alpha-helix variant LRHN (full helix only in FIG. 1D) (Mus musculus) (UniProt P08046). Kind of data set: ELONA. Particulars: [none]; apparent Kd, phage ELISA, PBS/Zn, RT.
Data set [2] addresses Zif268 finger 2 variant KASN finger 2 alpha-helix variant KASN (full helix only in FIG. 1D) (Mus musculus) (UniProt P08046). In words: ELONA. To be noted: [none]; apparent Kd, phage ELISA, PBS/Zn, RT.
Data set [3] concerns the target Zif268 finger 2 variant REDV finger 2 alpha-helix variant REDV (full helix only in FIG. 1D) (Mus musculus) (UniProt P08046). Particulars: [none].
For data set [4], the target named is Zif268 finger 2 variant RGPD finger 2 alpha-helix variant RGPD (full helix only in FIG. 1D) (Mus musculus) (UniProt P08046). To be noted: [none].
Data set [5] has as its target Zif268 finger 2 variant KASN finger 2 alpha-helix variant KASN (full helix only in FIG. 1D) (Mus musculus) (UniProt P08046). Particulars: [none].
The target in data set [6] is Zif268 finger 2 variant LRHN finger 2 alpha-helix variant LRHN (full helix only in FIG. 1D) (Mus musculus) (UniProt P08046). Particulars: [none].
Data set [7] addresses Zif268 finger 2 variant REDV finger 2 alpha-helix variant REDV (full helix only in FIG. 1D) (Mus musculus) (UniProt P08046). In words: ELONA. Particulars: [none]; apparent Kd, phage ELISA, PBS/Zn, RT.
For data set [8], the target named is Zif268 finger 2 variant RGPD finger 2 alpha-helix variant RGPD (full helix only in FIG. 1D) (Mus musculus) (UniProt P08046). Kind of data set: ELONA. To be noted: [none]; apparent Kd, phage ELISA, PBS/Zn, RT.
The target of data set [9] is Zif268 wildtype (three zinc fingers, phage displayed) (Mus musculus) (UniProt P08046). Kind of data set: ELONA. Particulars: apparent non-equilibrium Kd, phage ELISA, all values scaled to this one (3.0 nM); PBS/Zn, milk, Tween 20, salmon testes DNA, RT.
[10] abbreviates: apparent Kd interpolated from microarray signal 0.063.
[11] abbreviates: apparent Kd interpolated from microarray signal 0.122.

Where two headings read alike, the source gives them in different places.

On to “TATATAGCGAATGCGTATATATCAAGTCAATCGGTCC (double strand) [Zif268 site AAT]”, for which the Kd in data set [1] is 110 nM; in data set [2] it was 250 nM.
“TATATAGCGACGGCGTATATATCAAGTCAATCGGTCC (double strand) [Zif268 site ACG]”: the Kd in data set [3] (setting [10]) worked out at 1700 nM; in data set [4] (apparent Kd interpolated from microarray signal 0.143), 690 nM.
Turning to “TATATAGCGACTGCGTATATATCAAGTCAATCGGTCC (double strand) [Zif268 site ACT]”, the results for the Kd in [5] (apparent Kd interpolated from microarray signal 0.949) and in data set [6] (apparent Kd interpolated from microarray signal 0.342) were 260 nM and 160 nM, respectively.
As for “TATATAGCGAGTGCGTATATATCAAGTCAATCGGTCC (double strand) [Zif268 site AGT]”, the Kd in data set [5] (apparent Kd interpolated from microarray signal 0.862) was 320 nM; in [6] (apparent Kd interpolated from microarray signal 0.449), 93 nM.
For “TATATAGCGATGGCGTATATATCAAGTCAATCGGTCC (double strand) [Zif268 site ATG]”, the results for the Kd in data set [3] (apparent Kd interpolated from microarray signal 0.069) and in [4] (apparent Kd interpolated from microarray signal 0.136) were 1600 nM and 720 nM, respectively.
Turning to “TATATAGCGATTGCGTATATATCAAGTCAATCGGTCC (double strand) [Zif268 site ATT]”, the results for the Kd in [1] and in [5] (apparent Kd interpolated from microarray signal 0.942) were 240 nM and 270 nM, respectively.
Turning to “TATATAGCGCAGGCGTATATATCAAGTCAATCGGTCC (double strand) [Zif268 site CAG]”, the Kd in [3] (apparent Kd interpolated from microarray signal 0.056) is 1800 nM; in [4] (apparent Kd interpolated from microarray signal 0.105), 820 nM.
Consider “TATATAGCGCATGCGTATATATCAAGTCAATCGGTCC (double strand) [Zif268 site CAT]”, for which the Kd in data set [1] worked out at 120 nM.
“TATATAGCGCCCGCGTATATATCAAGTCAATCGGTCC (double strand) [Zif268 site CCC]”: the figures for the Kd in [3] (setting [10]) and in data set [4] (apparent Kd interpolated from microarray signal 0.119) were 1700 nM and 770 nM, respectively.
Regarding “TATATAGCGCCGGCGTATATATCAAGTCAATCGGTCC (double strand) [Zif268 site CCG]”, the Kd in data set [7] was 880 nM; in [8], 250 nM.
Turning to “TATATAGCGCCTGCGTATATATCAAGTCAATCGGTCC (double strand) [Zif268 site CCT]”, the values for the Kd in [5] (apparent Kd interpolated from microarray signal 0.974) and in data set [6] (apparent Kd interpolated from microarray signal 0.298) were 250 nM and 200 nM, respectively.
As to “TATATAGCGCGCGCGTATATATCAAGTCAATCGGTCC (double strand) [Zif268 site CGC]”, the Kd in data set [5] (apparent Kd interpolated from microarray signal 0.774) is 390 nM.
As to “TATATAGCGCGGGCGTATATATCAAGTCAATCGGTCC (double strand) [Zif268 site CGG]”, in data set [2], the Kd was 1460 nM.
With “TATATAGCGCGTGCGTATATATCAAGTCAATCGGTCC (double strand) [Zif268 site CGT]”, the Kd in data set [5] (apparent Kd interpolated from microarray signal 0.848) was 330 nM; in data set [6] (apparent Kd interpolated from microarray signal 0.330), 170 nM.
Consider “TATATAGCGCTCGCGTATATATCAAGTCAATCGGTCC (double strand) [Zif268 site CTC]”, for which the values for the Kd in data set [3] (apparent Kd interpolated from microarray signal 0.058) and in data set [4] (setting [11]) were 1800 nM and 760 nM, respectively.
For the sequence “TATATAGCGGAAGCGTATATATCAAGTCAATCGGTCC (double strand) [Zif268 site GAA]”, in [5] (apparent Kd interpolated from microarray signal 0.697), the Kd came to 1000 nM.
As to “TATATAGCGGACGCGTATATATCAAGTCAATCGGTCC (double strand) [Zif268 site GAC]”, in data set [5] (apparent Kd interpolated from microarray signal 0.652), the Kd was 1300 nM.
With “TATATAGCGGAGGCGTATATATCAAGTCAATCGGTCC (double strand) [Zif268 site GAG]”, the Kd was found to be 690 nM in data set [3] (apparent Kd interpolated from microarray signal 0.120) and 670 nM in data set [4] (apparent Kd interpolated from microarray signal 0.151).
For the sequence “TATATAGCGGATGCGTATATATCAAGTCAATCGGTCC (double strand) [Zif268 site GAT]”, in data set [6] (apparent Kd interpolated from microarray signal 0.500), the Kd was 72 nM.
With “TATATAGCGGCAGCGTATATATCAAGTCAATCGGTCC (double strand) [Zif268 site GCA]”, the Kd was determined as 1300 nM in [3] (apparent Kd interpolated from microarray signal 0.108) and 510 nM in [4] (apparent Kd interpolated from microarray signal 0.216).
In the case of “TATATAGCGGCCGCGTATATATCAAGTCAATCGGTCC (double strand) [Zif268 site GCC]”, the Kd is 600 nM in data set [8] and 1500 nM in data set [3] (apparent Kd interpolated from microarray signal 0.084).
In the case of “TATATAGCGGCGGCGTATATATCAAGTCAATCGGTCC (double strand) [Zif268 site GCG]”, the Kd is 11 nM in [7] and 17 nM in data set [8].
Consider “TATATAGCGGCTGCGTATATATCAAGTCAATCGGTCC (double strand) [Zif268 site GCT]”, for which the Kd in [3] (apparent Kd interpolated from microarray signal 0.077) came out at 1600 nM; in [4] (apparent Kd interpolated from microarray signal 0.406), 220 nM.
Turning to “TATATAGCGGGCGCGTATATATCAAGTCAATCGGTCC (double strand) [Zif268 site GGC]”, the Kd in [5] (apparent Kd interpolated from microarray signal 0.636) amounted to 1400 nM.
Regarding “TATATAGCGGGGGCGTATATATCAAGTCAATCGGTCC (double strand) [Zif268 site GGG]”, the Kd in data set [5] (apparent Kd interpolated from microarray signal 0.612) is 1700 nM; in data set [3] (setting [11]), 1100 nM; in [4] (apparent Kd interpolated from microarray signal 0.118) it was 770 nM.
Consider “TATATAGCGGGTGCGTATATATCAAGTCAATCGGTCC (double strand) [Zif268 site GGT]”, for which the Kd in [5] (apparent Kd interpolated from microarray signal 0.616) is 1600 nM; in [6] (apparent Kd interpolated from microarray signal 0.238), 260 nM.
Consider “TATATAGCGGTGGCGTATATATCAAGTCAATCGGTCC (double strand) [Zif268 site GTG]”, for which the Kd in data set [7] came to 11 nM; in data set [4] (apparent Kd interpolated from microarray signal 0.175) it was 610 nM.
“TATATAGCGTACGCGTATATATCAAGTCAATCGGTCC (double strand) [Zif268 site TAC]”: the Kd in [6] (apparent Kd interpolated from microarray signal 0.329) stood at 170 nM.
As for “TATATAGCGTAGGCGTATATATCAAGTCAATCGGTCC (double strand) [Zif268 site TAG]”, the Kd came to 110 nM in data set [1] and 390 nM in [2].
Take “TATATAGCGTATGCGTATATATCAAGTCAATCGGTCC (double strand) [Zif268 site TAT]”: the figures for the Kd in data set [1] and in [2] were 6.3 nM and 270 nM, respectively.
As for “TATATAGCGTCTGCGTATATATCAAGTCAATCGGTCC (double strand) [Zif268 site TCT]”, the values for the Kd in data set [3] (apparent Kd interpolated from microarray signal 0.083) and in [4] (apparent Kd interpolated from microarray signal 0.146) were 1500 nM and 690 nM, respectively.
“TATATAGCGTGGGCGTATATATCAAGTCAATCGGTCC (double strand) [Zif268 site TGG]”: the Kd in data set [9] came out at 3 nM.
As for “TATATAGCGTGTGCGTATATATCAAGTCAATCGGTCC (double strand) [Zif268 site TGT]”, the Kd was determined as 320 nM in data set [5] (apparent Kd interpolated from microarray signal 0.856) and 130 nM in [6] (apparent Kd interpolated from microarray signal 0.384).
